Assay results taken from the DeepSol protein solubility set.

Assay: soluble on expression in E. coli; label from the status in PepcDB or PDB records

| Sequence | soluble on expression in E. coli |
| --- | --- |
| LFRRWVIYIIRLYQRWISPLKTMPSCRFYPTCSQYAIDAVGRYGVIKGGFMALKRILKCHPFHPGGYDPVK | soluble |
| LHPFFRSFALRASAHPVLSADFESAFAAARHAAPATAAAVQTAERLPEWNLTDLYPAMDSPELKADLDKADVACKAFETAFKGKLAALLALPDGGAALGAAVKSYEEVDDLLGRIASYGSLIYAGDTSDPARAKFYGDIQERLTDASTHLLFFTLEMNRLDDAALEAAMADPALGYYRPWVEDLRKDKPYQLDDKIEQLFHEKSNPSRGAWSRLFDETISSLRFTVDGQDLAIEPTLNLMQDPREEVRKSAGLALADTFGKNLRLFTLITNTLAKDKEISDRWRGFEDVASSRHLANRVEKEVVDAMVEAIRVSFPRLSHRYYALKARWFGKDRLEFWDRNAPLPKVETRDIGWGEAKDTVLSAYGAFSPKMADIAKTFFEKSWIDAPVRPGKSPGAFAHPTVPSAHPYVLLNYQGKPRDVMTLAHELGHGVHQVLAARQGALMAPTPLTLAETASVFGEMLTFRRLLDGAETPRARKIMLAQKVEDMINTVVRQTAFYTFERDVHIERRQGELTSEKIGEIWMKVQGESLGPAIHLGAGYETFWTYIPHFIHSPFYVYAYAFGDCLVNSLYAVYENAADGFADRYLEMLSAGGTKHHAELLAPFGLDARDPAFWQTGLSLIDRMISELESMEG | soluble |
| LHRYSEVLGLPVICTADGKNLGTIKDIIFCPKEKSVVAFLIECKGYNRRKKVVFASDVLSLGRDALIVNDADDVRDLKKVLHRPEFKDKGDILGLPIYTKNGEDLGTAKDVLFDLKHGKIDGIEVSDGLLQDIVKGRSVLPLIGKVEFGEENILVDNEAVEEMMETGGGIKNLIEGNKKVQRKG | not soluble |
| LIPILGLGNYTAQVDIELDFSAVEQTRKVFDPNTPATRSEYTLEDYNNGNVVAGVPGALSNQPPADASIPQDVAQMKDGSVMGQGSVHKEATRNYELDTTISHERKQSGVINRQTVAVAVKSRSSVNPDTGEVTYTPLSEADLNSIRQVLIGTVGYSENRGDLLNVLSMPF | not soluble |
| LKDFSFDLNVNLAKNVSNVEKLADGVDYIYFNGDSNFPINVGARPGHKLGEIYAKTLYKRDEQGNIIINKENGLPMTTTDADERLAKPIGNIQPNLLMSVSPSFTYKGITLSAIFDMKFGGDIISISEMNATGSGMAKRTMNRGESDNFMMIFPGVYEDGTPNTQKISASNYYGAQNAEDFIYDASFIKLKELAIGYTFPKSMLKKTPINSLNVSFVARNLAYLLKHTPGTSPEGGYDTTMFSQAIDFMAVPYTRTFGFSVNLGF | not soluble |
| LLEKHGVVVRSSNYELYADLSERMMNVIGRFCDNQYIYSIDESFLYFDHYESCINDWHEYGHKIRKAIWKETRLPVGVGFGETATLSKAANHAAKKLSGFN | not soluble |
| LLKEYKNAWDKYDDKQLKEVFALGDRFKNFISNCKTERECVTELIKTAEKSGYRNIEDILAKGETLKEGDKVYANNRGKGLIMFLIGKEPLYTGFKILGAHIDSPRLDLKQNPLYEDTDLAMLETHYYGGIKKYQWVTLPLAIHGVIVKKDGTIVNVCVGEDDNDPVFGVSDILVHLASEQLEKKASKVIEGEDLNILIGSIPLKDGEEKQKVKHNIMKILNEKYDISEEDFVSAELEIVPAGKARDYGFDRSMVMGYGQDDRICAYTSFEAMLEMKNAKKTCITILVDKEEVGSIGATGMQSKFFENTVADIMSLCGDYDELKLRKALYNSEMLSSDVSAAFDPNYPNVMEKRNSAYLGKGIVFNKYTGSRGKSGCNDANPEYIAELRRILSKESVNWQTAELGKVDQGGGGTIAYILAEYGMQVIDCGVALLNMHAPWEISSKADIYETKNGYSAFLNN | soluble |
| LNDFAVRVAKSFSKVSEEKKSGSDIQGVFGIGSLENALYTASFAAGGGDYNNFLFNIKKGRADFSNFFNHNSKTFQSLRDIFNSFKPLIDQKGLISNKHFDTPVNNYAKFHQLAFYVSSTARFPYSFAKDNVKRLIIGKRELEVNPKSMFAIKKENGNNGNSNLLGKVALDNNKSIELYENNIPNGKTDAILIKN | soluble |
| LPLCFADASGTLRYVNDRFTRLFGYAPEDIPTQEEWWSRVCTDGRCRGETADAWQASVQRGPNGASDIEPAEFRVACKNGDIRLVEVSGITIEGTVLATFIDI | not soluble |
| LQSKLSLPKIPNVIECFDISHLSGTATVGSMVQFRGGRPDKHNYRRFKIESVEGIDDFASIAEVVRRRYSRLLEDKHEMPDLIIIDGGKGQLSSAFQELRKLRVKVPIISIAKREEEIYVPGLKSPLPIKKDEKASLFVQEIRDEAHRFAINYNRLLRQKALIQK | not soluble |
| LRIEPVHDVEHSATVRDLEHIVAESRDAGELPRELSTLLGRILDFPTRTAGHAMIPRAHVDTVRAHDSLSSVLEKMGAGHTRYPVVGSSSDDLRGVIHLHDLLGEQSDGPAASRARPAVVVPSSLPLPDVLEQLTAARDEMALVVDEYGGFAGVITIEDLAEELVGEIA | not soluble |
| LRLCQVDRCTADMKEAKLYHRRHKVCEVHAKASSVFLSGLNQRFCQQCSRFHDLQEFDEAKRSCRRRLAGHNERRRKSSGE | soluble |
| LRPVLPTQSAHDPPAVHLSNGPGQEPIAVMTFDLTKITKTSSSFEVRTWDPEGVIFYGDTNPKDDWFMLGLRDGRPEIQLHNHWAQLTVGAGPRLDDGRWHQVEVKMEGDSVLLEVDGEEVLRLRQVSGPLTSKRHPIMRIALGGLLFPASNLRLPLVPALDGCLRRDSWLDKQAEISASAPTSLRSCDVESNPGIFLPPGTQAE | soluble |
| LRSAARTLYTWTLPNEYELIDVREPHEIEHTPSGAHITLPQSMWNDTTAIQHALDNITTDNVVVVCASGIRSAAFIEQFAHLNPHLTFHNVPSGINELP | not soluble |
| LSCLTPDNKPGKCVNIKKCTHLAEIEEDPIGEDETTYLKNSVCAGPEDNSVCCG | soluble |
| LSKPKLAVVGARKCSETGKQSVRKIVHELGNAFTIVSGLARGIDTCAHMEALKNKGNTIAVIGTGLDVYYPKENKALQDYMAKNHLVLTEYGPGEQPLKYHYPERNRIISGLCQGVMVVEAKLRSGSLITCERAMEEGRDVFAIPGNILDGKSDGCHHLIQEGAKCITTGFDIISEFS | not soluble |

| Sequence | soluble on expression in E. coli |
| --- | --- |
| LSLTQLSSGNPVYEKYYRQVEAGNTGRVLALDAAAFLKKSGLPDLILGKIWDLADTDGKGVLSKQEFFVALRLVACAQNGLEVSLSSLSLAVPPPRFHD | soluble |
| LSNFQGKVMMTVNATDVTDVITIPTAAGKNLCIVRAMDVGYMCDDTITYECPVLSAGNDPEDIDCWCTKSAVYVRYGRCT | soluble |
| LSPLEARVIGCLIEKEVTTPDHYPLTLNSLTTACNQKSNREPVLNLSEAEVQDTVEGLIARRLVSDESSFNSRTSKYQHRFCNTEFGDLKLNQQELGLICCLLLRGAQTPGELRTRTNRLCTFTDVKETEAVLERLANRDSGALVVKLPREPGKRESRYHHLFCGEVDMAAFATSSDNE | not soluble |
| LSSPADSYNEGVKLQPQEISPPPTANLDRSNDKVYENVTGLVKAVIEMSSKIQPAPPEEYVPMVKEVGLALRTLLATVDETIPLLPASTHREIEMAQKLLNSDLGELINKMKLAQQYVMTSLQQEYKKQMLTAAHALAVDAKNLLDVIDQARLKMLGQTRPH | soluble |
| LTAGKVDIPTPDGKMPAYRAAPAGKKDLPTLLVVSEIFGVHEYIQDVCRRLARLGYQAVAPELFARYGDPTGYTDIGRLRAEVVDKAGDRQVLADLDAAAAWAAANGGNSSRLGILGFCWGGRIVWLYAAHNPGLKAGAAWYGQLGGQASELKPRSVLESIGDLKAPVLGAYGGKDAGIPLSDVDRMRLALAKGPRAARDSRIDVYPEAPHAFHADYRPSYRKAEAEQAWQRMLDWFGQH | not soluble |
| LVIVTDPHQRIEWVNAAFEQQTGHSGPSVRGQPLCAVLQGEPAPGGCGDRLRAMLAEGRTARAEVEATAACGRRFWLDVSLQPLLDDEGALDGYMAVASDIT | not soluble |
| LVLEGGGMRGVFTCGVLDYLMDHDIRFPYAIGVSAGACNGLSYASRQRGRAKFSNIDLLEKYNYIGLKHLLRKRNILDFDLLFNEFPEHILPYDYDTYFASPERFVMVTTNCMTGEANYFEEKRDKSRVIDIVRASSSLPFVCPVTYVDGVPMLDGGIVDSIPLQRAIADGYTRNVVILTRNRGYRKDTKDIRIPSFVYRKYPKLREALSRRCAVYNEQLEMVEQMEDEGKIIVIRPQKPVMVDRIERDVQKLTEFYEEGYDCARNLFEF | not soluble |
| LWLASDLHLGPATPATAEAFLGLLQAAADEASALLLPGDIFDAWIGDDVIRAAPPWLAAVLQGIRAAAGRIPVYLGRGNRDFLIGQELADALGAHLLPEPVLLETDYGRILLTHGDEYCTDDSAYQQFRAMVRNPQWQAQFLAMSIPERLAMAEQARGESQAANQAKSMEIMDVNPASVEAALREADVDVLVHGHTHRPARHVL | not soluble |
| LYAFFKTMPKGGELHYHLAGGAYPETMLALAANGNYCLDKHTFAVSKDSSHCEGVNVKEVFNNPELYSNIIKDWSMKDFIPGKESGHDHFFNGFIKYMPIVFDYQPQLLADIVQRAAQQKAQYLEIMTIPDNAQSLTYGDLIKDIPSYDQKRRLLLANKDFQSNIQNTVLESDRILTKASQELRCNENPASDSCHVKIKFLYYVLREQPVDNVFAQALNAFEAVSKSKGNLIGVNLVQPEDGIISLRDYQKHMSIFEYLHRIYPNVPITLHAGELSPQAVTPENLSHHIRDALLIGHAQRIGHGVDIGYENNAEDTLKYMANHHIPVEINLISNLKILDISGSNHPLNYYLSHNVPVVLSTDDEGVLRTDLTQQYVEAAKEHGLSYQQLKQINRNTLTYSFLPGKSIWANADKAELVPDCHDLGSKSCQKFIAHNEKAKLQWNLEQQLIAFEKS | not soluble |
| MAAAPFDPAEVFQVFGMRRVDSASFDEQVVQAPGDDLRCVFLWGQDCYNCGIFKQTALLQRQALLALELSWFEADVYADEALGRRFSLHGVPTFVLYRSGKRLGRVTGWPGLPQFSAAMQRLRDGT | not soluble |
| MAADISESSGADCKGDPRNSAKLDADYPLRVLYCGVCSLPTEYCEYMPDVAKCRQWLEKNFPNEFAKLTVENSPKQEAGISEGQGTAGEEEEKKKQKRGGRGQIKQKKKTVPQKVTIAKIPRAKKKYVTRVCGLATFEIDLKEAQRFFAQKFSCGASVTGEDEIIIQGDFTDDIIDVIQEKWPEVDDDSIEDLGEVKK | not soluble |
| MAAEKTLRTCEKGHEYYKSSDCPTCPTCEKERTPQEGFLSLLSAPARRALEHHGIHTVEELSKYSEKEILKLHGMGPASLPKLRKALEESGLSFK | not soluble |
| MAAETTSEDVKLAASFKDASKLGIDQKSGIPRKVKGTLTWRLELKRTNDGFWISAFFKGASKKKISIKAEFTLLCAGQEPLNKTEKKDSDCTKKSTEYEVCAMFTECETENHFEKGSDLRFEVELTIVMENSSKKSSVKPKPEAKQEPTKENDKIVGSESMMLDQLTSKLFLKASEGARIISNEIINDLLDIANRFDVPEVKTKCEQFLLEDLKKALKEKMETAEKYELDCLQAVKSADDALANSLEKLAIK | not soluble |
| MAAGSGVVPPPLGAGLCTVKVEEDSPGNQESSGSGDWQNPETSRKQFRQLRYQEVAGPEEALSRLWELCRRWLRPELLSKEQIMELLVLEQFLTILPQELQAYVRDHSPESGEEAAALARTLQRALDRASPQVRLEWTLHGTREMA | soluble |
| MAAHQLSDFQRNKILRVFNTFYDCNHDGVIEWDDFELAIKKICNLHSWPTDGKKHNEARATLKLIWDGLRKYADENEDEQVTKEEWLKMWAECVKSVEKGESLPEWLTKYMNFMFDVNDTSGDNIIDKHEYSTVYMSYGIPKSDCDAAFDTLSDGGKTMVTREIFARLWTEYFVSNDRGAKGNHLFGTLKL | soluble |
